From PMC12153317

Target: specific HAs not engaged in ELISA (soluble HA ectodomains) (influenza virus)
Experiment: ELISA

CR8071
Kd: 0.35 nM
